Results on 30 sequences are retold here after the nanobody polyreactivity screen of Harvey et al. (2022).

The data set is described as follows: yeast display, Sf9 membrane polyspecificity reagent, FACS + sequencing; frameworks hold sequencing errors. The procedure, abridged: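 Using colony PCR, genes from sorted yeast display clones were amplified, then sequenced on MiSeq at 2 × 250 and filtered by CDR length. The clones had been stained with 10% biotinylated, detergent-solubilized Sf9 membrane reagent for 1 hour at 4 °C and sorted by FACS into low and high (top ~1%) gates on anti-HA and streptavidin fluorescence. Polyreactivity labels come from the gate of origin.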
Regarding “QVQLVESGGGLVQTGGSLRLSCAASGSTYYYYAMGWSRPAPGKERELVAGISWGGGSTYFADSVKGRFTISRDNAMNSVYLQMNSLKPEDTAVYYCNALNPKSYDYWGQGTQVTVSS”, the “polyreactivity (PSR sort gate)” value is on record as “low polyreactivity”.

Consider “QVQLVESGGGLVQVGGSLRLSCAASGITLSYYAMGWYRQAPGKERELVASITVSRTSTYYADSVKGRFTISRDNAKNSVYLQMNSLKPEDTAVYYCAAYAYQYRFSGYGYWGQGTQVTVSS”, for which the “polyreactivity (PSR sort gate)” value is “low polyreactivity”.

Turning to “QVQLVESGGGLVQVGGSLRLSCDASGITLSYYAMGWYRQAPGKVRELVASITVSRTSTYYADSVKRRFTISRDNAKNTVYLQMNSLKPEDTAVYYCAAYAFQYRFSGYGYWGQGTQVTVSS”, the “polyreactivity (PSR sort gate)” value is reported as “low polyreactivity”.

“QVQLVESGGGLVRAGGSLRISCAASGSIFDVNDMGWYRQAPGKERELVASISWNGGSPYYADSVKRRFTISRDNAKNTVYLQLNILNPEDTAVYYCNRSYRRPTSDLYDYWGQGTQVTVSS”: the “polyreactivity (PSR sort gate)” value is listed as “low polyreactivity”.

On to “QVQLVESGGGRVHAGGSHRISCAASGSIFGRYAMGGYRQAPRQDREVVAAISSRGGSTYYADTVKGRFTISRDNAKNTVYLQMTSLKPEDTAFYYCAKENWCTSYYARYDDWGQGTQVTVSS”, for which the “polyreactivity (PSR sort gate)” value was “high polyreactivity”.

Regarding “QVQLVESGGGVDQAGGSLRLSCAACGSTIPYYAMGWYRQAPGKERELVAAISASTGSTNYADSVKGRFTISRDNAKNTVYLQMNSLKPEDTAVYYCAKKRSKIKRFGYWGHGTQVTVSS”, the “polyreactivity (PSR sort gate)” value was “high polyreactivity”.

For the sequence “QVQLVESGGGVFQAGGSLRLSCAASGSIYAFNPMGWYRQAPGKETEFVASIRSSTGRTYYADSVKGRFTISRDNAKNTVYLQMNSLKPEDTAVYYCAADSPEKPPRRWYITWPDGYWGQGTQVTVSS”, the “polyreactivity (PSR sort gate)” value is “low polyreactivity”.

For “QVQLVESGGGVLQAGGSLRLSCAASGSTFAFYAMVRYREAPGKVRELVAAISRSGGRTYYADSVKGRFTISRDNAKNTVYLQMNSLIPEDTAVYYCAAPSGITTGPHREYDYWGLGTQVTVSS”, the “polyreactivity (PSR sort gate)” value was “high polyreactivity”.

For the sequence “QVQLVESGGGVVHAGGSLLLSCAASGRTFFRYVKGWYRQEPGKERELVAAISTRGGSTYYADSVKGRFTISRDNAKNTVYLQMNSLKPEDSAVYYCAADVPTGYDYWGQGTQVTVSS”, the “polyreactivity (PSR sort gate)” value is recorded as “high polyreactivity”.

“QVQLVESGGGVVQAGASLRLSCAASGNIFYGYAMGWYRQAPGKERELVARINWSGSRTYYADSVKGRFTISRDNAKNTVYLQMNSLKPEDTAVYYCNTSTSRVPGNGDYWGQGSQVTVSS”: the “polyreactivity (PSR sort gate)” value is “high polyreactivity”.

Regarding “QVQLVESGGGVVQAGGILSLSCAASGFTFATYAMGWYRQAPGKERELVAGITRSGGSTYYADSVKGRFTNSRYNAKNTVYLQMNSLKPEDTAVYYCNKAYGGDKYSGTYDYWGQGTQVTVSS”, the “polyreactivity (PSR sort gate)” value is “high polyreactivity”.

Turning to “QVQLVESGGGVVQAGGSLRLICAASGLTFDKYTMGRYRQAPGKERELVARISTSGSRTYYADSVKGRFTISRDNAKNTVYLQMNSLIPEDTEVYYCNKDGWIRRRRGYDYWGQGTQVTVSS”, the “polyreactivity (PSR sort gate)” value is on record as “high polyreactivity”.

As to “QVQLVESGGGVVQAGGSLRLRCAASGSTVLGYVMGWYRQAPGKERELVAAITRSGGRTYYADSVQGRFTISRDNAKNTVSLQMNSLKPEETAVYYCAALRGPSFHGYGYWGQGTQVTVSS”, the “polyreactivity (PSR sort gate)” value is “high polyreactivity”.

“QVQLVESGGGVVQAGGSLRLSCAASGFIFSVIVMGWYRQAPGKERELVASIPSGGSPYYADSVKGRFTISRDNAKNTVYLQMNSLKPEDTAVYYCAAEFVRSVEHHPGFDYWGQGTQVTVSS”: the “polyreactivity (PSR sort gate)” value is recorded as “low polyreactivity”.

As to “QVQLVESGGGVVQAGGSLRLSCAASGFTFARYTMGWYRPAPGKERELVAAISSRGSSTYYADSVKGRFTISRDNAKNTVYLQMNSLKPEDTAVYYCAKAYYTPYGVYVLHYYWGQGTQVTVSS”, the “polyreactivity (PSR sort gate)” value was “high polyreactivity”.

In the case of “QVQLVESGGGVVQAGGSLRLSCAASGFTFAYYATGWYRQAPGKERELVAAISRSGGSTYYADSVKGRFTISRDNAKNTVYLHMNSLKPEDTAVYYCARDQRKLGADFDSWGQRTQVTVSS”, the “polyreactivity (PSR sort gate)” value is “high polyreactivity”.

For “QVQLVESGGGVVQAGGSLRLSCAASGFTFGLYAMGWYRQAPGKERELVAVISSSGGSTYYADSVKGRFTISRDNAKNTVYLQMNSLKPEDTAVYYCAAEWHDYKFDVTYDYWGQGTQVTVSS”, the “polyreactivity (PSR sort gate)” value is on record as “low polyreactivity”.

Take “QVQLVESGGGVVQAGGSLRLSCAASGIIFDGNAMGWYRQAPGKERELVAAITSSTDSTYYADSVKGRFTFSRDNAKNTVYLQMNSLKPEDTAVYYCAADYPSKTFDYWGQGTQVTVSS”: the “polyreactivity (PSR sort gate)” value was “low polyreactivity”.

Regarding “QVQLVESGGGVVQAGGSLRLSCAASGIIFLYNVMGWYRQAPAKERELVAAISWRGGTYYAHSVKGRFTISRDNAKNSVYLQMNSLKPEDTAVYYCNTYPAASLYGFSYPYRYDSWGQGTQVTVSS”, the “polyreactivity (PSR sort gate)” value is on record as “high polyreactivity”.

“QVQLVESGGGVVQAGGSLRLSCAASGRIFGPYTMGWYRQAPGKERELVARISRRGGSTYYADSVKGRFTISRDNAKNTVYLQMNSLKPEDTAVYYCARSQAVYDGWFAKFGYWGQGTQVTVSS”: the “polyreactivity (PSR sort gate)” value is reported as “low polyreactivity”.

Take “QVQLVESGGGVVQAGGSLRLSCAASGRIFHYNAMGWYRQAPGKERELVAAISTGGSSNYADSVKGRFTISRDNAKNTVYLQMNSLKPEDTAVYYCAADHPVTYPTSKFDYWGQGTQVTVSS”: the “polyreactivity (PSR sort gate)” value is “low polyreactivity”.

With “QVQLVESGGGVVQAGGSLRLSCAASGRIFIWYDMGWYRQAPGKERELVAAITQSDDITYYADSVKGRFTISRDNAKNTVYLQMNSLKPEDTAVYYCAARVFETSTPYGYWGQGTQVTVSS”, the “polyreactivity (PSR sort gate)” value is given as “low polyreactivity”.

With “QVQLVESGGGVVQAGGSLRLSCAASGRIFRNNAMGWYRQAPGKERVLVAGIRGGGSTYYADSVKGRFTISRDNAKNTVYLQMNSLKPEDTAVYYCNAEASRYVGYGAWQTERDYWGQGTQVTVSS”, the “polyreactivity (PSR sort gate)” value was “low polyreactivity”.

Take “QVQLVESGGGVVQAGGSLRLSCAASGRIFSSYAMGWYRQAPGKERELVAAITSGGSTDYADSVKGRFSISRDNAKNTVYLQMNSLKPEDTAVYYCAKAFLAPWTYSPYYMFYYWGQGTQVTVSS”: the “polyreactivity (PSR sort gate)” value is on record as “low polyreactivity”.

With “QVQLVESGGGVVQAGGSLRLSCAASGRIFVRNAMGWYRQAPGKERELVAAISRSGGSTSYADSVKGRFTISRDNAKTTVYLQMNSLKPEDTAVYDCAARYARYQYQYDYWGQGTQVTVSS”, the “polyreactivity (PSR sort gate)” value is listed as “high polyreactivity”.

On to “QVQLVESGGGVVQAGGSLRLSCAASGRTFLVTALGWYRQAPGKERELVAVITRGGSTNYADSVKGRFTISRDNAKNTVYLQMNSLKPEDTAVYYCAKQFSPYRSYGPVVRYDYWGQGTQVTVSS”, for which the “polyreactivity (PSR sort gate)” value is reported as “low polyreactivity”.

Take “QVQLVESGGGVVQAGGSLRLSCAASGRTIYFYAMGWYRQAPGKERELVAAITGSGGRTYYADSVKGRFTISRDHAKNTVYLQMNSLKTEDTAVYYCAAVPPPLARLYVAAKRFDSWGQGTQVTVSS”: the “polyreactivity (PSR sort gate)” value is listed as “low polyreactivity”.

Regarding “QVQLVESGGGVVQAGGSLRLSCAASGSIFGVYAMGWYRQAPGQERELVAAIDSGSSTDYADSVKGRFTISRDNAKNTVYLQMNSLKPEDTAGYYCYPLDLAPVDYWGQGTQVTVSS”, the “polyreactivity (PSR sort gate)” value was “low polyreactivity”.

In the case of “QVQLVESGGGVVQAGGSLRLSCAASGSIFPYYVMGWYRQAPGKERELVAVISQSGGSTYYADSVKGRFTISRDNAKNTVYLQMNSLKPEDTAVYYCAAESAYDAYDYWGQGTQVTVSS”, the “polyreactivity (PSR sort gate)” value is “high polyreactivity”.

“QVQLVESGGGVVQAGGSLRLSCAASGSTFSYNAMGWYRQAPGKERELVAAITSTGRTYYADSVKGRFTISRDNAKNTVYLQMNSLKPEDTAVYYCNKRARSEQYSYNYGYYYWGQGTQVTVSS”: the “polyreactivity (PSR sort gate)” value is recorded as “high polyreactivity”.
